In PMC9170159 (2022):

Target: SARS-CoV-2 spike receptor-binding domain (RBD), Wuhan-Hu-1, His-tagged (SARS-CoV-2 (Wuhan-Hu-1), UniProt P0DTC2 319-541)
Assay: BLI

B1: NCI-CoV-1B5 VHH-hFc fusion protein (Fc fusion)
chain: DVQLVESGGGSVQAGGSLRLSCTGSRYTYSTYCMGWFRQAPGKEEEAVAIINSGGGEPYYGDSVKGRFTISQDRAKNTVYLQMDGLQPDDTAIYYCVAADSHNSRCYLGRSYVNYWGQGTQVTVSS
For B1, the Kd was 0.1 nM.
